# In US20250288617A1, “Gene Therapy” (priority 2022, published 2025):
# B1: GSE56: p53 dominant negative peptide (SEQ ID NO: 3), delivered as in vitro transcribed mRNA (nucleic acid)
# DNA: ATGGATGGATGGTGTCCTGGGAGAGACCGTCGGACAGAGGAAGAAAATTTCCGCAAAAAAGAAGAGCATTGCCCGGAGCTGCCCCCAGGGAGTGCAAAGAGAGCACTGCCCACCAGCACAAGCTCCTCTCCCCAGCAAAAGAAAAAACCACTCGATGGAGAATATTTCACCCTTAAGATCCGTGGGCGTGAGCGCTTCGAGATGTTCCGAGAGCTGAATGAGGCCTTGGAATTAAAGGATGCCCGTGCTGCCGAGGAGTCAGGAGACAGCAGGGCTCACTCCAGCTACCCGAAGATAGTTAGTTAG
# modifications: in vitro transcribed mRNA; protein SEQ ID NO: 3
# B2: Ad5-E4orf6/7: adenovirus serotype 5 protein E4orf6/7 (SEQ ID No. 27), delivered as in vitro transcribed mRNA (nucleic acid)
# DNA: ATGACCACCAGCGGCGTGCCCTTCGGCATGACACTCAGACCTACCAGAAGCCGGCTGAGCAGAAGAACCCCTTACAGCAGAGACAGGCTGCCTCCATTCGAGACAGAGACACGGGCCACCATCCTGGAAGATCACCCTCTGCTGCCCGAGTGTAACACCCTGACCATGCACAACGCCTGGACAAGCCCATCTCCTCCAGTGAAACAGCCCCAAGTGGGACAGCAGCCTGTTGCTCAGCAGCTGGACAGCGACATGAACCTGTCTGAACTGCCCGGCGAGTTCATCAACATCACCGACGAGAGACTGGCCCGGCAAGAGACAGTGTGGAACATCACCCCTAAGAACATGAGCGTGACCCACGACATGATGCTGTTCAAGGCCAGCAGAGGCGAGCGGACAGTGTACAGCGTTTGTTGGGAAGGCGGCGGACGGCTGAATACCAGAGTGCTGTAA
# modifications: in vitro transcribed mRNA
# Assays:
# [1] = system: vector DNA (ITR+cargo, ITR, HIV probes) in human graft; test: ddPCR of viral vector copies per human genome in long-term human xenografts; type: in vivo, NSG mice; conditions: AAVS1-edited HSPCs, AAV template
# Source text: Since short-read sequencing of the edited locus and genome-wide IS identification may underestimate the overall frequency of trapping events, we performed ddPCR analyses to get an independent genome-wide quantification of AAV genome trapping events. […] On the contrary, we detected only background noise signal when probing for the AAV plasmid contaminants in the human long-term graft (FIG. 6i). […] Whether integration of AAV DNA occurs mostly as individual elements in a sizable fraction of cells treated for editing or as concatemers in only a small fraction of them cannot be determined by this analysis. Since ITR fragments are not detected by the ITR+cargo assay we performed ddPCR also with the ITR probe on PB samples of mice from FIG. 5g and found equal or higher signal in most mice (FIG. 51).
# gDNA was isolated with QIAamp DNA Micro Kit from DNAse-treated in vitro culture cells pellet and in vivo samples, or with QuickExtract (Epicentre) from single colonies according to the manufacturer's instructions. For ddPCR analyses, 5-50 ng of gDNA for in vitro/vivo samples and 2 μl of gDNA for single colonies were analyzed using the QX200 Droplet Digital PCR System according to the manufacturer's instructions. […]
# [2] = system: AAVS1 locus; type: in vivo, human xenograft; conditions: in presence and absence of Ad5-E4orf6/7; 65 samples of published experiments
# Protocol: PCR amplicons for individual samples were generated by nested PCR and starting from >50-100 ng of purified gDNA. The first PCR step was performed with GoTaq G2 DNA Polymerase (Promega) according to manufacturer instruction using the following amplification protocol: 95° C.×5′min, (95° C.×0.5 min, 60° C.×0.5 min, 72° C.×[…])×20 cycles, 72° C.×5 min. The second PCR step was performed with GoTaq G2 DNA Polymerase (Promega) according to manufacturer instruction using 5 μl of the first-step PCR product and the following amplification protocol: 95° C.×5 min, (95° C.×0.5 min, 60° C.×0.5 min, 72° C.×0.3 min)×20 cycles, 72° C.×5 min. […] Amplicons concentration and quality was assessed by QuantiFluor ONE dsDNA system and 4200 Tapestation System (Agilent). […]
# Sequencing data were analyzed with CRISPResso2, which enables detection and quantification of insertions, mutations, and deletions in reads from gene editing experiments. In details, for each sample, input NGS reads were trimmed using the Trimmomatic software (http://www.usadellab.org/cms/?page=trimmomatic) based on the phred33 score to get rid of low-quality positions (score <30) and to remove Illumina adapters, keeping only trimmed sequences longer than 100 bp (CRISPResso2 options:—trim_sequences—trimmomatic_command trimmomatic—trimmomatic_options_string ‘[…]: TruSeq3-PE-2.fa: 2:30:10 MINLEN: 100’). […]
Molecule,ITR+cargo copies in long-term xenograft in presence of editing enhancers [1],frequency and number of unique NHEJ-edited alleles in the human graft [2]
B1,more copies,higher
B2,more copies,–
